Data set [1] concerns T1, O=c1ccn([C@@H]2O[C@H](COP(=O)(O)OP(=O)(O)O)[C@@H](O)[C@H]2O)c(=O)[nH]1.
T1 construct: wild type
Description: SUS (sucrose synthase) enzyme assay (purified recombinant protein). It is filed as biochemical, Eucalyptus grandis. The conditions noted are these: other: E. grandis SUS; SEM 0.003. The text has this: (§1) Sense constructs containing sequences including the coding regions for UGP (SEQ ID NO: 79) and SUS (SEQ ID NO: 105) from Eucalyptus grandis, and UGP (SEQ ID NO: 80) from Pinus radiata were inserted into the expression vector pET16b (Clontech Laboratories Inc, Palo Alto, Calif.). The resulting constructs were transformed into E. coli XL1-Blue (Stratagene) and induced to produce recombinant protein by the addition of IPTG. Purified proteins were obtained using Ni^2+ column chromatography (Janknecht et al., Proc. Natl. Acad. Sci. USA, 88:8972-8976, 1991).
(§2) Enzyme assays for SUS (sucrose synthase) were performed using the methods described by Sebkova et al. Plant Physiol., 108:75-83, 1995. […] The KM^Sucrose of E. grandis is compared with the data reported by Delmer, J. Biol. Chem. 247:3822-3828, 1972 and Nakai et al., Biosci. Biotech. Biochem. 61:1500-1503, 1997.

The test system of data set [2] is T2, OC[C@H]1O[C@@](CO)(O[C@H]2O[C@H](CO)[C@@H](O)[C@H](O)[C@H]2O)[C@@H](O)[C@@H]1O.
T2 construct: wild type
Described as above. In kind it is biochemical, Eucalyptus grandis. The conditions noted are these: other: E. grandis SUS; SEM 0.371.
Description: as §1, §2

Sequence of Eucalyptus grandis SUS (sucrose synthase), SEQ ID NO: 105 (DNA; protein SEQ ID NO: 106) (Eucalyptus grandis) (chain, as listed by the source): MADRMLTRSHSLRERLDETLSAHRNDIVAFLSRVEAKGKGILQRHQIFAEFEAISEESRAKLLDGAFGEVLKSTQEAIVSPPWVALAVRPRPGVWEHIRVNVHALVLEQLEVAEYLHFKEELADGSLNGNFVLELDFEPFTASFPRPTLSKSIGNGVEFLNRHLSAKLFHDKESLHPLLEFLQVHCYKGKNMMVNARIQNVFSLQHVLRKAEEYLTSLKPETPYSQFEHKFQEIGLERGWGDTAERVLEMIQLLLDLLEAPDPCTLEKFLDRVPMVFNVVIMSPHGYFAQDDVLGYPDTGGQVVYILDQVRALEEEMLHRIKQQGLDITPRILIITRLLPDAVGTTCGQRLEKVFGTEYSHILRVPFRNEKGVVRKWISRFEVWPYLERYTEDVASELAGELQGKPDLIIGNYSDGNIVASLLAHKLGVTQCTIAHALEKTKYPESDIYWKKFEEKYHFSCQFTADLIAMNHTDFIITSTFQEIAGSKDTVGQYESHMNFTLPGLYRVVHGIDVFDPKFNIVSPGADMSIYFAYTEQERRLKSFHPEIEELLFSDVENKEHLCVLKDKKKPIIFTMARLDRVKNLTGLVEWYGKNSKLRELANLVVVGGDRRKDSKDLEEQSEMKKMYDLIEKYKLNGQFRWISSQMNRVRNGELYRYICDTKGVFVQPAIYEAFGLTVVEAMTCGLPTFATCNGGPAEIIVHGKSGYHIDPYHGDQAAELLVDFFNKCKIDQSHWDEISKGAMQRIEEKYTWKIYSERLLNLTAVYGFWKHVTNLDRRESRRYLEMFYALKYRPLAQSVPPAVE

Take “Eucalyptus grandis SUS (sucrose synthase), SEQ ID NO: 105 (DNA; protein SEQ ID NO: 106) (Eucalyptus grandis)”: the Km (in general, the concentration of substrate that gives half-maximal velocity) turned out to be 28 µM in data set [1] and 1650 µM in data set [2].

Source of the values: patent publication US20030229922A1, “Materials and methods for the modification of plant cell wall polysaccharides” (GENESIS RESEARCH AND DEVELOPMENT CORPORATION LTD., priority 1998, published 2003).
